# Data published in patent publication US20090035322A1 (Regeneron, published 2009).
# Positions count from the first letter of the chain named. Read-outs that look alike come from different tables or passages of the source.
# B1: 8G6-5 (antibody, V domains shown)
# VH: EVQLAESGGDLVQSGRSLRLSCAASGITFHDYAMHWVRQPPGKGLEWVSGISWNSDYIGYADSVKGRFTISRDNAKKSLYLQMNSLRPDDTALYYCVKDFHYGSGSNYGMDVWGQGTTVTVSP
# VL: EIVMTQSPATLSMSPGERATLSCRASQSVSRNLAWYQQKVGQAPRLLISGASTRATGIPARFSGSGSGTEFTLTINSLQSEDFAVYYCQQSNDWPLTFGQGTRLEIK
# notes: Fully human IgG, constant region not specified; also called 8G6-5N
# B2: 10E3-17 (antibody, V domains shown)
# VH: EVQLVESGGGLVQPGRSLRLSCAASGFTFRDYAMHWVRQVPGKGLEWVSGISWNRGTIGYADSVKGRFTISRDNAKNSLFLQMNSLRADDTALYYCAKDHYYGSGSPYGMDVWGQGTTVTVSS
# VL: EIVLTQSPATLALSPGERATLSCRASQSVSKYLAWYQQKPGQAPRLLIYDASKRVTGIPGRLSGSGSGTDFTLTISSLEPEDFALYYCQQSSNWPITFGQGTRVEIK
# notes: Fully human IgG, constant region not specified; also called 10E3-17N
# B3: 9C11-14 (antibody, V domains shown)
# VH: QVQLVESGGDSVKPGGSLRLSCAASGFTFSDSYMTWIRQAPGKGLEWVSFISSSGSTIYYADSVKGRFTISRDNVKKSLYLQMNRLRAEDTAVYYCAREEPGNYVYYGMDVWGQGTTVTVSS
# VL: EIVVTQSPATLSLSPGERATLSCRTSQTTTSYLAWYRQKPGQAPRLLIYDASNRAAGIPARFSGSGSGTDFTLTINSLEPEDFAVYYCQLRTNWITFGQGTRLEIK
# notes: Fully human IgG, constant region not specified; also called 9C11-14N
# B4: 9D4-7 (antibody, V domains shown)
# VH: EVQLVESGGGLVQPGRSLRLSCAASGFTFYDYAMHWVRQAPGKGLEWVSGISWNSDTIGYADSVKGRFTISRDNAKNSLYLQMNSLRAEDTALYYCTKDGSYGHFYSGLDVWGQGTTVTVSS
# VL: EIVLTQSPATLSLSPGERATLSCRASQSVSSYLAWYQQKPGQAPRLLIYVASNRATGIPARFSGSGSGTDFTLTISSLEPDDFAVYYCQQRYYWPLTFGGGTKVEIK
# notes: Fully human IgG, constant region not specified; also called 9D4-7N
# B5: 2B7-7 (antibody, V domains shown)
# VH: EVQLVESGGGLVQPGRSLRLSCAASGFTFRDYTMHWVRQGPGKGLEWVSGISWNSDYIGYADSVKGRFTISRDNAKNSLYLQMNSLRVEDTALYYCAKLSGTYRDYFYGVDVWGQGTTVTVSS
# VL: B4 VL with T20A, S31N, V50D, D81E, Y92S, Y93N, K107R
# notes: Fully human IgG, constant region not specified; also called 2B7-7N
# B6: 6F6-1 (antibody, V domains shown)
# VH: AVQLVESGGGLVQPGRSLRLSCAASGFTFRDYAMHWVRQGPGKGLEWVSGISWNTDYIGYADSVKGRFTISRDNAKNSLYLQMNSLRPEDTALYYCAKDARYGRDNYYGMDVWGQGTTVTVSS
# VL: EIVMTQSPATLSVSPGERATLSCRASQSVSHNLAWYQQKPGQAPRLLIYGAYTRATGIPDRFSGTGSGTEFTLTISSLQSEDFAVFYCQQYNNWPLTFGGGTKVEIK
# notes: Fully human IgG, constant region not specified; also called 6F6-1N
# B7: 9E4-20 (antibody, V domains shown)
# VH: B6 VH with A1E, R30Y, G40A, T55S, P88A, D105N, Q115P
# VL: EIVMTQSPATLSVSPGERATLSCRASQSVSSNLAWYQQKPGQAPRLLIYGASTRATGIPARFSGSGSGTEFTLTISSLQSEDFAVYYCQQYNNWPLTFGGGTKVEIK
# notes: Fully human IgG, constant region not specified; also called 9E4-20N
# B8: 10F2-13 (antibody, V domains shown)
# VH: EEQLVESGGDLVQPGRSLRLSCAASGFTFHDYTMHWVRQAPGKGLEWVSGISWNSGSLGYADSVKGRFTISRDNAKKSLYLQMNSLRAEDTALYYCAKDPSYGSGSYHSYYGMDVWGQGTTVTVSS
# VL: EIVLTQSPATLSLSPGERATLSCWASQSISRYLVWYQQKCGQAPRLLIYEASKRATGIPVRFSGSGSGTDFTLTISSLESEDFAVYYCQQRFNWPLTFGGGTKVEIK
# notes: Fully human IgG, constant region not specified; also called 10F2-13N; ab 10F2-13
# B9: 6B9-4 (antibody, V domains shown)
# VH: B8 VH with L58I, K77N, A88I, H108Y, S109Y
# VL: B4 VL with A34V, K39R, V50E, P80S, D81E, Y92S, Y93N
# notes: Fully human IgG, constant region not specified; also called 6B9-4N
# Tests used:
# human CD20 [1] = target: T1, human CD20 (human, UniProt P11836 1-297); assay: cell-based or functional assay
# T1 sequence: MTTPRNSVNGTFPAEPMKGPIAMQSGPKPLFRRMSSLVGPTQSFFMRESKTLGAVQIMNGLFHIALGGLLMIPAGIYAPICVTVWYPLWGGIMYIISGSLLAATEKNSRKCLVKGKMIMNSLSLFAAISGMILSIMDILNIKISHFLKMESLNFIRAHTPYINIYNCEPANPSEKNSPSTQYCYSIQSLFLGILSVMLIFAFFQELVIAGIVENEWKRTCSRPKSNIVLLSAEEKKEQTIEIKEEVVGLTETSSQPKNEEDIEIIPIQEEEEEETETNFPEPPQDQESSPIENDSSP
# [2] = target: T2, mutant human CD20 #4 (N166D) (human, UniProt P11836 1-297); assay: FACS, mutant-hCD20 MG87 cells; 100%=best antibody
# T2 construct: Stably expressed on MG87 cells
# T2 sequence: T1 sequence with N166D
# Description: (§1) Briefly, approximately 1×10⁶ cells from each stably transfected cell line expressing a mutant human CD20 were collected and incubated with each anti-human antibody, at 10 μg/ml, on ice for 1 hr, followed by incubation with APC-conjugated goat anti-human IgG (Jackson Immunolabs), at 10 μg/ml, on ice for 45 min. For each antibody, binding to each mutant human CD20 was assessed by flow cytometry.
# [3] = target: T3, mutant human CD20 #5 (P172S) (human, UniProt P11836 1-297); assay: FACS, mutant-hCD20 MG87 cells; 100%=best antibody
# T3 construct: Stably expressed on MG87 cells
# T3 sequence: T1 sequence with P172S
# Description: as §1
# [4] = target: T4, mutant human CD20 #3 (A170S, P172S) (human, UniProt P11836 1-297); assay: FACS, mutant-hCD20 MG87 cells; 100%=best antibody
# T4 construct: Stably expressed on MG87 cells
# T4 chain: T1 sequence with A170S, P172S
# Description: as §1
# [5] = target: T5, mutant human CD20 #8 (Y77F, N163D, N166D) (human, UniProt P11836 1-297); assay: FACS, mutant-hCD20 MG87 cells; 100%=best antibody
# T5 construct: Stably expressed on MG87 cells
# T5 chain: T1 sequence with Y77F, N163D, N166D
# Description: as §1
# [6] = target: T6, mutant human CD20 #10 (A157V) (human, UniProt P11836 1-297); assay: FACS, mutant-hCD20 MG87 cells; 100%=best antibody
# T6 construct: Stably expressed on MG87 cells
# T6 sequence: T1 sequence with A157V
# Description: as §1
# human CD20 [7] = target: T1, human CD20; assay: cell-based or functional assay; remark: listed apart in the source
Binder,"% Cytotoxicity (CDC, Daudi), 0 hour (human CD20 [1]) [%]","% Cytotoxicity (CDC, Daudi), 1 hour (human CD20 [1]) [%]","% Cytotoxicity (CDC, Daudi), 6 hour (human CD20 [1]) [%]",Percent of Binding to Mutant Human CD20 [2] [%],Percent of Binding to Mutant Human CD20 [3] [%],Percent of Binding to Mutant Human CD20 [4] [%],Percent of Binding to Mutant Human CD20 [5] [%],Percent of Binding to Mutant Human CD20 [6] [%],"% Cytotoxicity (CDC, Daudi), 0 hour (human CD20 [7]) [%]","% Cytotoxicity (CDC, Daudi), 1 hour (human CD20 [7]) [%]","% Cytotoxicity (CDC, Daudi), 6 hour (human CD20 [7]) [%]"
B1,99.6,99.2,97.7,70,76,65,0,96,,,
B2,,,,1,49,6,0,87,97,96.2,79.2
B3,55.8,22.3,12.9,87,29,0,100,83,,,
B4,99.4,99,96,5,66,70,0,75,,,
B5,99.4,99.4,98.3,100,88,87,0,83,,,
B6,,,,85,100,100,0,98,97.1,97.1,76.4
B7,,,,8,57,57,0,76,67.4,31.2,49.9
B8,99.6,99.2,98.5,60,69,55,0,87,,,
B9,,,,3,67,64,0,75,98.1,98.5,97.5
